According to patent publication US20220331363A1:

Target: human Burkitt's lymphoma cell Daudi
Assay: flow cytometry (FACS) on Daudi cells, which Example 3 says do not express BCMA

EC50: 58.2 µg/mL
Substance: murine anti-BCMA antibody C11D5.3 (scFv), reference antibody
